Assay results as given in patent publication US11453711B2, “Fusion proteins of GLP-1 and GDF15 and conjugates thereof” (BEIJING QL BIOPHARMACEUTICAL CO., LTD., priority 2019, dated 2022).

Assays:
[1] = Body weight and food intake in C57BL/6 mice, fusion protein conjugates, 30 nmol/kg daily 10 days; format: in vivo
Outline: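 Male C57BL/6 mice received fusion protein conjugates by daily subcutaneous injection, with dosing running from Day 1 to Day 10. Body weight was recorded daily per animal and food intake daily per group. Body weight reduction was expressed relative to vehicle percent loss from Day 1. Cumulative food intake reduction was expressed as percent decrease versus vehicle.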

[2] = Body weight and food intake in lean C57BL/6 mice, lysine conjugated compounds, 15 nmol/kg daily sc 14 days; format: in vivo; conditions: for Body weight reduction at 15 nmol/kg (% reduction compared to vehicle)(Day11) / Cumulative food intake reduction at 15 nmol/kg (% reduction compared to vehicle)(Day11): C57 mice, 15 nmol/kg daily sc
Procedure: FIGS. 1A-1F show In vivo activities of fusion proteins. To evaluate the body weight and food intake effects of the fusion proteins, 10 week old male C57BL/6J mice were dosed everyday subcutaneously with 15 nmol/kg protein for 14 days. Food intake and body weight were measured daily. FIGS. 1A and 1B show body weight loss upon protein treatments from Day1 to Day15. […] FIGS. 1D and 1E show cumulative food intake with protein treatments from Day1 to Day15. […] Vehicle: 1.42 mg/mL disodium phosphate dihydrate, 14 mg/mL propylene glycol pH7.4. Data are expressed as mean values and standard error (SEM) for FIGS. 1A, 1B and 1C. n=5 for each treatment group. For FIGS. 1D, 1E and 1F, a pooled food intake was measured for each treatment group.
10 week old male C57BL/6 mice were injected everyday subcutaneously with 15 nmol/kg of the fusion protein conjugates (i.e., MLC002, MLC 004, MLC 005, MLC 006, MLC 007, MLC 008, and MLC 009) for 14 days. Food intake and body weight were measured daily and five animals were used for each treatment group. Body weight (BW) was monitored for each individual animal, but food intake for each group animals was measured together. Day 1 and Day 14 are first day and last day of molecule dosage. % BW loss=100*(BW on Day n-BW on Day 1)/(BW on Day 1). Cumulative food intake on Day n represents sum of food intake from Day 1 to Day n. Data are indicated as mean values and standard error (SEM) or pooled values. Statistical analysis was performed by One-way ANOVA. Body weight reduction on Day 11 is calculated by −1*(% BW loss−% BW loss of vehicle group); Cumulative food intake reduction is calculated by −100*(cumulative food intake-cumulative food intake of vehicle)/cumulative food intake of vehicle.

[3] = PK study in non-human primates, single sc dose 5 nmol/kg, plasma ELISA; conditions: monkey, single sc dose 5 nmol/kg; for Cmax: read-out: Cmax (nmol/L)
[4] = Pharmacokinetic measurement in mouse, single sc dose 30 nmol/kg, plasma ELISA; conditions: for Cmax: read-out: Cmax (nmol/L), single sc dose 30 nmol/kg; for AUC0-24 h / Terminal t1/2 / Tmax: single sc dose 30 nmol/kg
[5] = Efficacy in DIO mice, daily sc 28 days; format: in vivo, DIO male C57BL/6 mice
Procedure: FIGS. 6A-6E show In vivo efficacy in DIO mice. To evaluate the body weight, food intake and glucose effects of the fusion proteins, 17 week old DIO mice (C57BL/6 mice on high fat diet for 13 weeks) were dosed everyday subcutaneously with different concentrations of proteins for 28 days. […] FIGS. 6D and 6E show body weight change with dose titrations of MLC089 and MLC093 at 3, 10 and 30 nmol/kg. Data are expressed as mean values and standard error (SEM) for FIGS. 6A, 6C, 6D and 6E. n=5 for each treatment group. For FIG. 6B, a pooled food intake was measured for each treatment group.
17 week old DIO male C57BL/6 mice (˜45 g) were injected everyday subcutaneously with designated proteins (i.e., MLC089, MLC093) for 28 days. Food intake and body weight were measured daily and five animals were used for each treatment group. Fasting glucose was also monitored on designated days. Body weight and glucose were monitored for each individual animal, but food intake for each group animals was measured together. Day 1 and Day 28 are first day and last day of molecule dosage. % BW loss=100*(BW on Day n-BW on Day 1)/(BW on Day 1). Cumulative food intake on Day n represents sum of food intake from Day 1 to Day n. Terminal blood was collected and EDTA-2K plasma was prepared and frozen at −80 C for biomarker measurement. Liver was also collected and frozen in liquid nitrogen and store at −80 C. Data are indicated as mean values and standard error (SEM) or pooled values.

[6] = Efficacy in db/db mice: body weight, food intake, glucose, biomarkers, daily sc 14 days; format: in vivo
Procedure: (§1) FIGS. 4A-4D show In vivo efficacy in db/db mice. To evaluate the body weight, food intake and glucose effects of the fusion proteins, 8 week old male db/db mice were dosed everyday subcutaneously with 30 nmol/kg protein for 14 days. […] Compared to Vehicle control: ***, p<0.001. Data are expressed as mean values and standard error (SEM) for FIGS. 4A, 4B and 4D. n=5 for each treatment group. For FIG. 4C, a pooled food intake was measured for each treatment group.
FIGS. 5A-5F show In vivo efficacy in db/db mice. To evaluate the body weight, food intake and glucose effects of the fusion proteins, 8 week old male db/db mice were dosed everyday subcutaneously with different concentrations of proteins for 14 days. FIGS. 5A and 5B show body weight loss upon protein treatments from Day1 to Day15. […] Compared to Vehicle control: ***, p<0.001; **, p<0.01; *, p<0.05; ns, non-statistically significant; FIGS. 5D and 5E show cumulative food intake with protein treatments from Day1 to Day15. […] Compared to Vehicle control: ***, p<0.001**, p<0.01; *, p<0.05; ns, non-statistically significant. Data are expressed as mean values and standard error (SEM) for FIGS. 5A, 5B, 5C and 5F. n=5 for each treatment group. For FIGS. 5D and 5E, a pooled food intake was measured for each treatment group.
as §1, with “8A-8I” for “4A-4D”, “different concentrations of proteins” for “30 nmol/kg protein”, “FIGS. 8D-8F show body weight loss upon dose titrations of fusion protein conjugates. […]” for “Compared to Vehicle control: ***, p<0.001.”, “8A” for “4A, 4B”, “8C-I.” for “4D.”, “8B,” for “4C,”
Selected fusion protein conjugates are assessed in disease animal models (DIO mice, db/db mice, etc.) to determine body weight, food intake, glucose efficacy with dose responses. Some biomarkers are also measured, including fasting insulin, plasma triglyceride, cholesterol, liver triglyceride, and inflammatory biomarkers (ALT, AST and CRP).
8 week old male db/db mice were injected everyday subcutaneously with designated proteins for 14 days. Age matched lean mice were used as control. Food intake and body weight were measured daily and five animals were used for each treatment group. Fasting glucose were tested on designated days as shown in each figure. Body weight was monitored for each individual animal, but food intake for each group animals was measured together. Day 1 and Day 14 are first day and last day of molecule dosage. % BW loss=100*(BW on Day n-BW on Day 1)/(BW on Day 1). Cumulative food intake on Day n represents sum of food intake from Day 1 to Day n. Terminal blood was collected and EDTA-2K plasma was prepared and frozen at −80° C. for biomarker measurement. Liver was also collected and frozen in liquid nitrogen and store at −80° C. Data are indicated as mean values and standard error (SEM) or pooled values. Statistical analysis was performed by One-way ANOVA.

[7] = 30 nmol/kg, FIG. 8A-C, versus Semaglutide, Tirzepatide and MLC014

Molecule | Body weight reduction at 30 nmol/kg (% reduction compared to vehicle)(Day11) [1] [%] | Cumulative food intake reduction at 30 nmol/kg (% reduction compared to vehicle)(Day11) [1] [%] | Body weight reduction at 15 nmol/kg (% reduction compared to vehicle)(Day11) [2] [%] | Cumulative food intake reduction at 15 nmol/kg (% reduction compared to vehicle)(Day11) [2] [%] | AUC0-96 h [3] [µM·h] | Terminal t1/2 [3] [h] | Tmax [3] [h] | Cmax [3] [nmol/L] | Cmax [4] [nmol/L] | AUC0-24 h [4] [µM·h] | Terminal t1/2 [4] [h] | Tmax [4] [h] | further results
Semaglutide [reference compound] | 2.6 | 20.9 | 7.2 | 23.2 |  |  |  |  |  |  |  |  | 
MLC004: fusion polypeptide SEQ ID NO: 251 conjugated with Moiety A at 26K of GLP-1 (conjugate, Moiety A conjugated at K26) HGEGTFTSDVSSYLEEQAAKEFIAWLVRGGGGQEPGAQPGQEPGAQPGQEPGAQPGQEPGAQPGQEPGAQPGQEPGAQPGAQPGAQPGAQPGAQPGAQPGAQPGAQPGAQPARQGDHCPLGPGRCCRLHTVRASLEDLGWADWVLSPREVQVTMCIGACPSQFRAANLHAQIKTSLHRLRPDTVPAPCCVPASYNPMVLIQRTDTGVSLQTYDDLLARDCHCI | 18.3 | 35.0 | 13.9 | 21.8 | 0.79 | 13 | 8 | 32.1 | 15.1 | 0.1745 | 7.4 | 3.3 | BW reduction ([2]; 15 nmol/kg daily sc 14 days, versus Semaglutide): statistically significantly enhanced BW loss efficacy than Semaglutide
MLC089: fusion polypeptide SEQ ID NO: 379 conjugated with Moiety B at 39C of Linker (conjugate, Moiety B conjugated at linker Cys39) HGEGTFTSDVSSYLEEQAAKEFIAWLVRGGGGAQPGAQPGAQPGAQPGAQPGAQPGAQPGAQPGQEPGQCPGQEPGAQPGQEPGAQPGQEPGAQPGQEPGAQPGQEPGAQPARQGDHCPLGPGRCCRLHTVRASLEDLGWADWVLSPREVQVTMCIGACPSQFRAANLHAQIKTSLHRLKPDTVPAPCCVPASYNPMVLIQKTDTGVSLQTYDDLLAKDCHCI | 24.6 | 29.9 |  |  | 3.413 | 54 | 8 | 70.5 | 116 | 1.9822 | 14.7 | 10.7 | body weight reduction efficacy ([5]; DIO mice, 30 nmol/kg daily 28 days, FIG. 6A): much better body weight reduction efficacy than Semaglutide and GDF15 derivative (MLC014); dose dependence of body weight reduction ([5]; DIO mice, 3, 10 and 30 nmol/kg, FIGS. 6D and 6E): dose dependent efficacy on body weight reduction; fasting glucose ([5]; DIO mice, FIG. 6C): reached similar level to Semaglutide; efficacy ([5]; DIO study, FIG. 6): better efficacy than Semaglutide and GDF15 derivative (MLC014); body weight loss [6, 7]: more body weight loss, food intake suppression and glycemic control; food intake suppression [6, 7]: more body weight loss, food intake suppression and glycemic control; glycemic control [6, 7]: more body weight loss, food intake suppression and glycemic control; efficacy ([6]; FIG. 8 study): better efficacy than Semaglutide and GDF15 derivative (MLC014)
